Experimental data: patent US20260234211A1, “POLYPEPTIDE HAVING MODIFIED STRUCTURE AND USE THEREOF” (Guangdong Raynovent Biotech Co., Ltd., priority 2023, published 2026)

Key:
Assay in all cases: cell-based or functional assay
[1] = target: GLP-1 receptor (GLP-1R)
[2] = target: GCG receptor (GCGR)
[3] = target: T1, GIP receptor (GIPR)
T1 sequence (P48546 whole entry, species assumed, looked up): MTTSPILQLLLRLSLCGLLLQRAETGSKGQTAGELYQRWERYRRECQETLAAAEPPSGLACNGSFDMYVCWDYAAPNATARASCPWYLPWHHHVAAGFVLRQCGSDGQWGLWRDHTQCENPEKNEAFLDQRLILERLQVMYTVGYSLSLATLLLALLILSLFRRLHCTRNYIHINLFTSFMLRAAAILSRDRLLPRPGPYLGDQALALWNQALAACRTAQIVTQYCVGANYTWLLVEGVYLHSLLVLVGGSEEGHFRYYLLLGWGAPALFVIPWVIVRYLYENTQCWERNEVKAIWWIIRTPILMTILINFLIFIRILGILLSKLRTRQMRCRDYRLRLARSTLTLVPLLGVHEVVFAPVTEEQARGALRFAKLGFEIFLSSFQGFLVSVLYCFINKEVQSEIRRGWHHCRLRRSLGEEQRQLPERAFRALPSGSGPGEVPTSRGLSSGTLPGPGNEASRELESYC

With “Human GLP-1 (7-37) (from UniProt P01275 21-180) (ligand)” the GLP-1 EC50 (nM), cAMP assay on HEK293 cells with GLP-1R [1] was 0.001 nM.

“Human Glucagon (from UniProt P01275 53-81) (ligand)” was tested, and the GCG EC50 (nM), cAMP assay on HEK293 cells with GCGR [2] was 0.001 nM.

Substance LY3437943 (peptide) has a GLP-1 EC50 (nM), cAMP assay on HEK293 cells with GLP-1R [1] of 0.014 nM, a GIP-1 EC50 (nM), cAMP assay on CHO cells with GIPR [3] of 0.001 nM and a GCG EC50 (nM), cAMP assay on HEK293 cells with GCGR [2] of 0.031 nM.
